Assay results reported in patent US20060294608A1.

Biological target: CHO derived N' FLAG-mNR6 (N-terminal FLAG-tagged murine NR6) (mouse) (UniProt Q9JM58)
Experiment: Biosensor (BiaCore) with M2 immobilised, after passage over M2 affinity resin

Sequence of UniProt Q9JM58 (Q9JM58 other isoform, or with tags, fused parts or gaps limits assumed): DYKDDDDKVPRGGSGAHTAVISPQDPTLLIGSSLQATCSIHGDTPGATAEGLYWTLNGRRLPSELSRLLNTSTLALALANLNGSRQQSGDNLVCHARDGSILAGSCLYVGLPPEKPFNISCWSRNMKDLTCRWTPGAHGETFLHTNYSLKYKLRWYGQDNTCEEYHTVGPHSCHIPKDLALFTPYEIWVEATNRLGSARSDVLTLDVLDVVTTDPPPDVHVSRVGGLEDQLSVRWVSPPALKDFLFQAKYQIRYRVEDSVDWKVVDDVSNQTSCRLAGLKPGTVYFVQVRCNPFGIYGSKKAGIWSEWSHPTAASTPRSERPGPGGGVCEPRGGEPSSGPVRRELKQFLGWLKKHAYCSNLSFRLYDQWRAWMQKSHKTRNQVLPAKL

**Q.** With “anti FLAG peptide M2 antibody (Kodak Eastman, USA)” as the substance, how does the M2 binding remaining in the unbound fraction read?
**A.** The M2 binding remaining in the unbound fraction was 20%.
